Experimental data: paper PMC10908796, “RTF2 controls replication repriming and ribonucleotide excision at the replisome” (Nature Communications, 2024)
Each block holds one binder with its values, some of them ahead of it.

Key:
[1] = biological target: T1, recombinant RNase H2 complex (hRNASEH2BCA) (human, UniProt Q5TBB1 1-312; Q8TDP1 1-164; O75792 1-299); assay: co-IP; recombinant RNase H2 complex and RTF2 (0.5, 1, 2, 4 pmol) from E. coli mixed 2 hr at 4 °C in 20 mM HEPES pH 7.5, 1 mM DTT, 0.01% NP-40, 5% glycerol, 0.1 mg/mL BSA, 50 mM NaCl, benzonase; NaCl raised to 150 mM; Dynabeads 1 hr at 4 °C; immunoblot; conditions: both partners purified
T1 construct: RNASEH2B, human, non-catalytic accessory subunit of RNase H2; RNASEH2C, human, non-catalytic accessory subunit of RNase H2; RNASEH2A, human, catalytic subunit of RNase H2; Heterotrimer formed beforehand by co-expression; also called RH2; source: E. coli, purified (GST pulldown, then AKTA FPLC); copies: + +
T1 sequence (looked up) 1: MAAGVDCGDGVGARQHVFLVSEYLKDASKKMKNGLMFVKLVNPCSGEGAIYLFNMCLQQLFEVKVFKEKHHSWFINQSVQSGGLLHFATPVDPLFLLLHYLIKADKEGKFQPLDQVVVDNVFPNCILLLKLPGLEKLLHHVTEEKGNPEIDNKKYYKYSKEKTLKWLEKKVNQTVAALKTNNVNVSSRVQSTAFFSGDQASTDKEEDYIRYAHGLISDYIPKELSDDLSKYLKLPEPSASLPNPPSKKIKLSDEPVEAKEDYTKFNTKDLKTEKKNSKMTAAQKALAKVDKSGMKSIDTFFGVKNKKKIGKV
T1 sequence (looked up) 2: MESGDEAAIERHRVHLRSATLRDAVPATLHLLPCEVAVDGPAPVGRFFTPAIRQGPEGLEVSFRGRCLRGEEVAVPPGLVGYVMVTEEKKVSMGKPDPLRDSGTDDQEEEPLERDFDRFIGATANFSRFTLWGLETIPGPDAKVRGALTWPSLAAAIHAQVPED
T1 sequence (looked up) 3: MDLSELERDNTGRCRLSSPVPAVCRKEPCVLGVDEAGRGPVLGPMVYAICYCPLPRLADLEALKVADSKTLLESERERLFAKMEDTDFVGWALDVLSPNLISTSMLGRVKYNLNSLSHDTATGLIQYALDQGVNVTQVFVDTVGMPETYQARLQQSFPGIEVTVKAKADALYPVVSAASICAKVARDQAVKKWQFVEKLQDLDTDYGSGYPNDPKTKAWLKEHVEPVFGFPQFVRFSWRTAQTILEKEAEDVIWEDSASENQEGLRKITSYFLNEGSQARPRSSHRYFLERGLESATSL

[2] = biological target: T1, recombinant RNase H2 complex …; assay: co-IP; recombinant GFP-tagged RTF2 (0.5, 1, 2, 4 pmol) and RNase H2 complex from E. coli, immunoprecipitation as for untagged RTF2 (20 mM HEPES pH 7.5, 150 mM NaCl final, benzonase, Dynabeads); immunoblot; conditions: both partners purified

binding result [1]: binds
B1: recombinant hRTF2 (natural protein, human, UniProt Q9BY42 1-306, looked up)
chain: MGCDGGTIPKRHELVKGPKKVEKVDKDAELVAQWNYCTLSQEILRRPIVACELGRLYNKDAVIEFLLDKSAEKALGKAASHIKSIKNVTELKLSDNPAWEGDKGNTKGDKHDDLQRARFICPVVGLEMNGRHRFCFLRCCGCVFSERALKEIKAEVCHTCGAAFQEDDVIMLNGTKEDVDVLKTRMEERRLRAKLEKKTKKPKAAESVSKPDVSEEAPGPSKVKTGKPEEASLDSREKKTNLAPKSTAMNESSSGKAGKPPCGATKRSIADSEESEAYKSLFTTHSSAKRSKEESAHWVTHTSYCF
notes: Replication Termination Factor 2 (RTF2), human (hRTF2); source: E. coli, purified (IMAC, then AKTA FPLC)

binding result [2]: binds
B2: recombinant GFP-tagged RTF2 (natural protein, human, UniProt Q9BY42 1-306, looked up)
chain: B1 chain
notes: Replication Termination Factor 2 (RTF2), human (hRTF2 in the methods on recombinant proteins); also called GFP-RTF2; source: E. coli, purified
